Test [1] deals with AMC009 SOSIP.v4.2-D7324 trimer (HIV-1 (subtype B)). Nature of the test: negative-stain electron microscopy; NS-EM, reference-free 2D class averages of purified SOSIP trimers; percent native-like trimers.
Test [2] concerns the target AMC009 SOSIP.v5.2 trimer (HIV-1 (subtype B)). The test is described as above.
Test [3] has the same target. In words: native gel or EMSA. (A gel shift assay detects complexes by their altered migration in electrophoresis.)
Test [4] deals with AMC011 SOSIP.v4.2 trimer (HIV-1 (subtype B)). Nature of the test: native gel or EMSA.
Test [5] addresses AMC011 SOSIP.v5.2 trimer (HIV-1 (subtype B)). Nature of the test: negative-stain electron microscopy; NS-EM, reference-free 2D class averages of purified SOSIP trimers; percent native-like trimers.
For test [6] the target is unchanged. Nature of the test: native gel or EMSA.

“AMC009 SOSIP.v4.2-D7324 trimer (complex)” had a % native-like trimers in test [1] of 100%.

As a reminder, the stoichiometry N is a count of units in the complex or per binding partner. AMC009 SOSIP.v5.2 trimer (complex) showed a % native-like trimers in test [2] of 100%. In addition, in test [3], the stoichiometry N worked out at 3.

Consider AMC011 SOSIP.v4.2 trimer (complex), for which, in test [4], the stoichiometry N amounted to 3.

Turning to AMC011 SOSIP.v5.2 trimer (complex), the % native-like trimers in test [5] is 100%. The substance further displayed a stoichiometry N in test [6] of 3.
